The nature of the data set: yeast display, Sf9 membrane polyspecificity reagent, FACS + sequencing; frameworks hold sequencing errors. An outline of the steps:
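In a synthetic yeast display library (Saccharomyces cerevisiae BJ5465), nanobody expression was induced with galactose for 36–48 hours. FACS gates were set low and high (top ~1%) using anti-HA fluorescence for expression and streptavidin fluorescence for binding of the Sf9 membrane reagent. Each polyreactivity label is drawn from the gate of origin.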
For the sequence “QVQLVESGGGLVQAGGSLRLSCAASGSIFLIYAMGWYRQAPGKERELVAAISSGGSTYYADSVKGGFTISRDNAKNTVYLQMNSLKPEDTAVYYCATYSTSVGYHLYYWGQGTQVTVSS”, the “polyreactivity (PSR sort gate)” value is on record as “low polyreactivity”.

With “QDQRVESGGGLVQAGGSLRLSCAASGRTFKGNARGWYRQAPGKERELVAAISKSGGRTYYADSVKARFTISRDNAKNTVYLQMNSLKPEDTAVYYCAVDEGPTIVRFGYSGQGTQVTVSS”, the “polyreactivity (PSR sort gate)” value is on record as “high polyreactivity”. As for “QVQLVESGGGLVQAGGSLRLSCAASGSTFDRYAMGWYRQAPGKERELVAAISCSGGRTYYADSVKGRFTISRDNEKNTVYLQMNSLKPEDTAVYYCATVSRSSLAYIKYDYWGQGTQVTVSA”, the entry is “high polyreactivity”; as for “QVQLVESGGGLVQAGGSLRLSCAASGFTFIAYAKGWYRQAPGKERELVAAISRRGGSTYYADSVKGRFTISRDNAKNTVYLQMNSLKPEDTAVYYCAKESRKKTDYDYWGQGTQVTVSS”, “high polyreactivity”. The same measure for “QVQLVESGGGLVQAGGSLRLSCAASGRIFSTNAMGWYIQAPGKERELVAAISKNGGRTYYADSVKWRFTISRDNAKNTVYLQMNSLKPEDTAVYYCAAPVKPVTGYYPYDYWGQGTQVTVSS”: “high polyreactivity”; for “QVQLVESGGGLVQAGGSLRLSCAASGRIFRLYAMGWYRQAPGKERELVAAISKSGGSTYYADSVKGRFTFSRDNAKNTVYLQMNSLKPEDTAVYYCAADYRTHGGYEGTFDYWGQGTQVTVSS”: “low polyreactivity”; for “QVHLVESGGGLFQAGGRLRLSCAAAGSTFPKYARGWYRQAPGKERELVAAISWSGDSTNYADSVKGRITISRDNAKNTVYVQMNSLKPEDTAVYYCAAYNFIHAGPWEYDYWGQGTQVTVSS”: “low polyreactivity”.

On to “QVQLVESGGGLVQAGGSLRLSCAASGRIFYYNAMGWYRPAPGKERELVAAINYRGGSTYYADSVKGRFTISRDNAKNTVYFQMNSLKPEDTAVYDCAARYWKDGSTYDYWGQGTQVTVSS”, for which the “polyreactivity (PSR sort gate)” value was “high polyreactivity”. The same measure for “QVQLVESGGGLVQAGGSLRLSCAASGRTFWYYGMGWYRQAPGKERELVAAISRSGGRTSYADSVKGRFTISRDNAKNTVYLQMNSLKPEDTAVYYCATDGYYRYGYWGQGTQVTVSS”: “high polyreactivity”. As for “QVQLVESGVGLVQAGASLRLSCAASGFIFRKNAMGWYRQAPGKERELVAAISGSGGRTYYADSVKGRFTISRDNAKNTVYLQMNSVKPEDNAVYYCNADYLSRRYSFDYWGQGTQVTVSS”, the entry is “high polyreactivity”. The same measure for “QVQLVESGGGLVQAGGSLRLSCAPSGFTFGSNAMGWYRQAPGKERELVAAITWRGGSTYYADSVKGRFTISRDNAKNTVYLQMNSLKPEDTAVYYCAAVRSASSWQYIWLKYYYWGQGTQVTVSS”: “high polyreactivity”. With “QDQHVESGGGLVQAGGSLRLSCAASGIIFYDNTMGWYRQAPGKERELVASITWRGGSTYYADSVKGRFTISRDNAKNTVYLQMNSLKPEDTAVYYCNADSSDDYDYWGQGTQVTVSS”, the “polyreactivity (PSR sort gate)” value is on record as “low polyreactivity”. For “QVQLVESGGGLVQAGGSLRLSCAASGLIFGYNAMGWYRQAPGKEREYVAGISVIDGRTYYADSVKGRFTISRDNAKNTVYLQMNSLKPEDTAVYYCATEGFVYSWLWEFEYWGQGNQVTVSS”, the “polyreactivity (PSR sort gate)” value was “low polyreactivity”.

For “QVQLVESGGGLVQAGGSLRLSCAASGRTFGNYVMGWYRQAPGKERELVAAISRSGGSTYYADSVKGRFTISRDNAKNTVYLQMNSLKPVDTAVYYCNTVTTYEVEYWGQGTQVNVSS”, the “polyreactivity (PSR sort gate)” value was “high polyreactivity”. As for “QVQLVESGGGLVQAGGSLRLSCAASGRTFVYNAMGWYRQAPGKERELVAAISQSGGSTYYADSVKGRFTISRDTAKNSVYLQMNSLKPEVTAVYDCAARYTTGSYVRYNFWGQGTQVTVSS”, the entry is “high polyreactivity”; as for “QVQLVESGGGLVQAGGSLRLSCAASGNTFNAFNAMGWYRQAPGKERELVAAISRRGGSTYYADSVKGRFTISRDNAKNTVYLQMNSLKPEDTAVYYGAAYYSRSKYDYWGQGTQVTVSS”, “high polyreactivity”.

Values taken from the nanobody polyreactivity screen of Harvey et al. (2022).
